# Test system: PBMCs
# Test: PBMC proliferation assay (3H-TdR incorporation)
# Type: cell-based, human
# Conditions: positive control, 1% PHA
# Text: Peripheral blood was obtained from four healthy subjects, two males and two females (ages 18-30 years old). Peripheral blood mononuclear cells (PBMCs) were isolated by Ficoll Hypaque (Sigma-Aldrich) gradient separation. Human MSCs were obtained from human bone marrow aspirates (Lonza, Walkersville, Md., USA) from four healthy subjects, two males and two females, ages 18-30 years old, according to previously published protocols and cryopreserved before use. Human MSCs were characterized for the expression of surface markers CD29, CD44, CD73, CD90, and CD105 and lack expression of CD14, CD34 and CD45 as determined by flow cytometry. The differentiation potency was determined by the differentiation of MSCs into osteoblasts, adipocytes and chondrocytes in vitro [32,33]. […]
# The cytotoxicity of Na2WO4 was examined using PBMCs. Cell proliferation was measured using tritiated thymidine (^3H-TdR) incorporation as described in Kapoor et al.. […]
# After 16 h, the cells were harvested on glass fiber filters (Cambridge Technology, Inc.) using a cell harvester (EMD Millipore). […] The radioactive incorporation of ^3H-TdR in the cells was measured using a liquid scintillation counter (Beckman; Fullerton, Calif., USA). The stimulation index (SI) was calculated as disintegration per minute (dpm) of treated group/dpm of unstimulated PBMCs (0 mM).
substance,measurement,value
phytohemagglutinin [PHA],stimulation index (SI),11.5±1.2

# From patent publication US10772909B2, “System and method for insulin-mimetic of cartilage, bone, or osteochondral repair and piezoelectric composite scaffold” (New Jersey Institute of Technology, priority 2016, dated 2020)
